Target: C-terminally truncated fragment of DdSkp1 (residues 1–122) (Dictyostelium discoideum) (UniProt P52285)
Assay: AUC

stoichiometry N: 2
Substance: C-terminally truncated fragment of DdSkp1 (residues 1–122) (from UniProt P52285 1-122) (domain or fragment)

Reference: PMC6282176
